Measured values reported in patent US7037662 (dated 2006).
Each block holds one binder with its values, some of them ahead of it.

B7: soluble HEK (sHEK), complete extracellular domain (exodomain) of HEK encoded by exons I-VII (receptor, human, UniProt P29320 21-541, looked up)
chain: ELIPQPSNEVNLLDSKTIQGELGWISYPSHGWEEISGVDEHYTPIRTYQVCNVMDHSQNNWLRTNWVPRNSAQKIYVELKFTLRDCNSIPLVLGTCKETFNLYYMESDDDHGVKFREHQFTKIDTIAADESFTQMDLGDRILKLNTEIREVGPVNKKGFYLAFQDVGACVALVSVRVYFKKCPFTVKNLAMFPDTVPMDSQSLVEVRGSCVNNSKEEDPPRMYCSTEGEWLVPIGKCSCNAGYEERGFMCQACRPGFYKALDGNMKCAKCPPHSSTQEDGSMNCRCENNYFRADKDPPSMACTRPPSSPRNVISNINETSVILDWSWPLDTGGRKDVTFNIICKKCGWNIKQCEPCSPNVRFLPRQFGLTNTTVTVTDLLAHTNYTFEIDAVNGVSELSSPPRQFAAVSITTNQAAPSPVLTIKKDRTSRNSISLSWQEPEHPNGIILDYEVKYYEKQEQETSYTILRARGTNVTISSLKPDTIYVFQIRARTAAGYGTNSRKFEFETSPDSFSISGESSQ
notes: extracellular domain; Untagged soluble exodomain from CHO cells; also called HEK exodomain

Assays:
[1] = target: T1, LERK 7-FLAG (monovalent LERK7/AL-1 with N-terminal FLAG peptide) (human, UniProt P52803 21-203, limits assumed); assay: BIAcore in-solution competition; 40 nM LERK 7 with increasing competitor injected onto an sHEK-derivatised sensor chip; residual response as % of the response without competitor
T1 construct: domain: mature protein stopped before the hydrophobic tail; also called soluble LERK7
T1 sequence (looked up): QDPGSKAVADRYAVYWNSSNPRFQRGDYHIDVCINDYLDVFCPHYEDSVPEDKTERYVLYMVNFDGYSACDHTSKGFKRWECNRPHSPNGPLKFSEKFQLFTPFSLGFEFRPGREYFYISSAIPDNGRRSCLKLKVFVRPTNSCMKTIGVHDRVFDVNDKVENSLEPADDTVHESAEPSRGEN
Protocol: (§1) The binding of various HEK constructs and derived peptides was analysed on the BIAcore optical biosensor (Pharmacia Biosensor, Sweden) using purified soluble HEK (corresponding to the entire extracellular domain) or LERK 7-FLAG derivatised CM 5 sensor chips and the interaction kinetics determined. The immobilization of HEK onto the sensor chip surface was performed essentially as described by Lackmann et al, 1996. LERK7-FLAG (47 μg/ml in 20 mM sodium acetate, pH 4.5) was coupled at 5 μl/min onto N-hydroxysuccinimide (NHS, 0.05 M)/N-hydroxysuccinimide-N-ethyl-N'-([…]) carbodiimide(EDC, 0.2 M) activated sensor chips (45 μl, 2 μl/min) to yield an increase in the response level of 2500–3000 response units (RU).
Figure 2F: FIG. 2F: Samples containing 40 nM LERK 7 and 1 nM—10 μM synthetic peptide encoded by exons I and II of the HEK gene (Δ), 10 nM—1 μM HEK I–VII (o), 10 nM—1 μM HEK IV–VII (x) or 1 nM—1 μM HEK I-III (□) were injected onto an sHEK-derivatised sensor chip. The residual responses are illustrated as percentage of the total response in the absence of competitor.

[2] = target: B7; assay: BIAcore, apparent KD from equilibrium responses, LERK-Fc over immobilised HEK
Protocol: (§2) Figure 2C: FIG. 2C: Expression of soluble HEK (sHEK) polypeptides encoded by the constructs shown in B. sHEK in lane 1 corresponds to the complete extracellular domain (exodomain) of HEK encoded by exons I–VII. […] Samples (50 μl) of purified fusion proteins comprising the human Fc domain and either LERK 1, 2, 3, 4, 5 and 7 at 10 μg/ml in BIAcore running buffer were applied onto an sHEK-derivatised sensor chip. The responses were recorded 20 s after completion of the injection phase and are shown as relative BIAcore response units, (RU) compared to the response of an equal amount of human Fc domain used as a control in this experiment.
(§3) Receptor-ligand interactions within the Eph family RTKs has mainly been studied by modified indirect Scatchard analysis of human IgG-Fc fusion proteins of ligands or receptors binding to receptor or ligand transfected cells, respectively (Beckmann et al., 1994, supra; Davis et al., 1994, supra; Ceretti et al., 1995, supra: Bennett et at., 1995). To evaluate if BIAcore analysis also detected the interaction of various LERKs with HEK, we compared the binding of bivalent, Fc-fusion proteins of LERK (LERKS 1 to 5) and LERK 7 (FIG. 2C) to sensor chip-immobilised HEK exodomain. Each ligand sample was injected at concentrations between 0.1–10 µg/ml (approximately 0.8 to 80 nM) across the sensor chip. A sample containing 10 µg/ml of the recombinant Human Fc fragment was used as a control.

[3] = target: B7; assay: BIAcore, LERK 3-FLAG over immobilised sHEK, single component model
Protocol: as §1
(§4) Figures 5A, 5B: FIG. 5: Binding curves for the interaction of monovalent LERK-FLAG fusion proteins with immobilised sHEK. Homogeneous preparations of CHO cell-derived LERK 3-FLAG (panel A) or LERK 7-FLAG (panel B) at increasing concentrations (8.22, 16.44, 32.88, 65.75, 131.5, 263, 526 nM) of LERK3-FLAG, and (1.25, 2.5, 5, 10, 20, 40, 80 nM) LERK7-FLAG were injected across an sHEK-derivatised sensor surface. BIAcore data for the association and dissociation phases were used to estimate corresponding kinetic rate constants on the basis of a one-to-one interaction model. (panel C). […]

[4] = target: B7; assay: BIAcore, LERK-FLAG over HEK sensor chip; reference LERK 7-FLAG
[5] = target: B7; assay: BIAcore, apparent KD from kinetic rate constants, immobilised sHEK
Protocol: as §1, §4

[6] = target: T2, recombinant Human Fc fragment (control) (human, UniProt P01857-1 99-330 = IgG part, limits assumed); assay: BIAcore; human Fc domain at 10 µg/ml (50 µl) on an sHEK-derivatised sensor chip; response 20 s after the end of the injection
T2 construct: domain: Fc fragment; also called human Fc domain; control recombinant Fc construct
Protocol: as §2
as §3, with “A sample containing 10 µg/ml of the recombinant Human Fc fragment was used as a control.” left out

B1: HEK I-III (FLAG-tagged HEK subdomain construct, exons I-III) (receptor, not shown: small tags and cut ends)
chain: ELIPQPSNEVNLLDSKTIQGELGWISYPSHGWEEISGVDEHYTPIRTYQVCNVMDHSQNNWLRTNWVPRNSAQKIYVELKFTLRDCNSIPLVLGTCKETFNLYYMESDDDHGVKFREHQFTKIDTIAADESFTQMDLGDRILKLNTEIREVGPVNKKGFYLAFQDVGACVALVSVRVYFKKCPFTVKNLAMFPDTVPMDSQSLVEVRGSCVNNSKEEDPPRMYCSTEGEWLVPIGKCSCNAGYEERGFMCQ
notes: Native signal peptide (residues 1-20) replaced by IL3 signal and FLAG
IC50 (read off the curve) [1]: ~70 nM

B6: HEK I-VII (N-terminally FLAG-tagged HEK exodomain, exons I-VII) (receptor, human, UniProt P29320 21-541, looked up, not shown: small tags and cut ends)
chain: ELIPQPSNEVNLLDSKTIQGELGWISYPSHGWEEISGVDEHYTPIRTYQVCNVMDHSQNNWLRTNWVPRNSAQKIYVELKFTLRDCNSIPLVLGTCKETFNLYYMESDDDHGVKFREHQFTKIDTIAADESFTQMDLGDRILKLNTEIREVGPVNKKGFYLAFQDVGACVALVSVRVYFKKCPFTVKNLAMFPDTVPMDSQSLVEVRGSCVNNSKEEDPPRMYCSTEGEWLVPIGKCSCNAGYEERGFMCQACRPGFYKALDGNMKCAKCPPHSSTQEDGSMNCRCENNYFRADKDPPSMACTRPPSSPRNVISNINETSVILDWSWPLDTGGRKDVTFNIICKKCGWNIKQCEPCSPNVRFLPRQFGLTNTTVTVTDLLAHTNYTFEIDAVNGVSELSSPPRQFAAVSITTNQAAPSPVLTIKKDRTSRNSISLSWQEPEHPNGIILDYEVKYYEKQEQETSYTILRARGTNVTISSLKPDTIYVFQIRARTAAGYGTNSRKFEFETSPDSFSISGESSQ
notes: extracellular domain; CHO cell product; in the zebrafish experiments expressed from injected mRNA; also called HEK-FLAG
IC50 (read off the curve) [1]: ~90 nM

Binder: B7
binding result [6]: no binding (tested: 10 µg/ml)

B8: LERK7-Fc fusion protein (Fc fusion, UniProt P52803 21-203, looked up)
chain: QDPGSKAVADRYAVYWNSSNPRFQRGDYHIDVCINDYLDVFCPHYEDSVPEDKTERYVLYMVNFDGYSACDHTSKGFKRWECNRPHSPNGPLKFSEKFQLFTPFSLGFEFRPGREYFYISSAIPDNGRRSCLKLKVFVRPTNSCMKTIGVHDRVFDVNDKVENSLEPADDTVHESAEPSRGEN
notes: not shown: Fc and hinge regions of human IgG1
Kd [2]: 3 nM

Further lines, results first:

Kd [2]: 6 nM
B2: LERK 4-Fc fusion protein (Fc fusion, UniProt P52798 26-170, looked up)
chain: LRHVVYWNSSNPRLLRGDAVVELGLNDYLDIVCPHYEGPGPPEGPETFALYMVDWPGYESCQAEGPRAYKRWVCSLPFGHVQFSEKIQRFTPFSLGFEFLPGETYYYISVPTPESSGQCLRLQVSVCCKERKSESAHPVGSPGES
notes: not shown: human Fc domain

koff [3]: 0.26 s⁻¹ | kon [3]: 370000 M⁻¹ s⁻¹ | fold higher concentration needed for a response comparable to LERK7 [4]: ~30 fold | Kd [5]: 590 nM
B3: LERK 3-FLAG (monovalent FLAG-tagged LERK 3) (ligand, UniProt P52797 23-214, looked up, not shown: small tags and cut ends)
chain: QGPGGALGNRHAVYWNSSNQHLRREGYTVQVNVNDYLDIYCPHYNSSGVGPGAGPGPGGGAEQYVLYMVSRNGYRTCNASQGFKRWECNRPHAPHSPIKFSEKFQRYSAFSLGYEFHAGHEYYYISTPTHNLHWKCLRMKVFVCCASTSHSGEKPVPTLPQFTMGPNVKINVLEDFEGENPQVPKLEKSISG
notes: CHO cell-derived

Kd [2]: 5 nM
B4: LERK 3-Fc fusion protein (Fc fusion, UniProt P52797 23-214, looked up)
chain: QGPGGALGNRHAVYWNSSNQHLRREGYTVQVNVNDYLDIYCPHYNSSGVGPGAGPGPGGGAEQYVLYMVSRNGYRTCNASQGFKRWECNRPHAPHSPIKFSEKFQRYSAFSLGYEFHAGHEYYYISTPTHNLHWKCLRMKVFVCCASTSHSGEKPVPTLPQFTMGPNVKINVLEDFEGENPQVPKLEKSISG
notes: not shown: human Fc domain

Kd [2]: 24 nM
B5: LERK 5-Fc fusion protein (Fc fusion, UniProt P52799 28-229, looked up)
chain: IVLEPIYWNSSNSKFLPGQGLVLYPQIGDKLDIICPKVDSKTVGQYEYYKVYMVDKDQADRCTIKKENTPLLNCAKPDQDIKFTIKFQEFSPNLWGLEFQKNKDYYIISTSNGSLEGLDNQEGGVCQTRAMKILMKVGQDASSAGSTRNKDPTRRPELEAGTNGRSSTTSPFVKPNPGSSTDGNSAGHSGNNILGSEVALFA
notes: not shown: human Fc domain
